Results taken from patent US20170008975A1, “Anti-Tissue Inhibitor of Metalloproteinase-4 (Timp-4) Antibodies and Methods of Use Thereof” (LANKENAU INSTITUTE FOR MEDICAL RESEARCH, priority 2014, published 2017).
Entries after “also recorded” stand apart in the source; their conditions may differ.

T1: CD63 (Homo sapiens, UniProt P08962)
T1 construct: endogenous in cells; host or cells: MDA-MB-468
T1 sequence (P08962 1-238): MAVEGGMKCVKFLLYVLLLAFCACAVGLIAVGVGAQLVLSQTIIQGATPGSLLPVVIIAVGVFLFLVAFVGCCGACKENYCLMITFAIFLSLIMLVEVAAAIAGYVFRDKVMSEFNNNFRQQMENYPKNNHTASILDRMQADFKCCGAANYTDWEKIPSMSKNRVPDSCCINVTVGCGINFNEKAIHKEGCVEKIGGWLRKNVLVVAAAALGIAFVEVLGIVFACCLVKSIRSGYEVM

B1: TIMP-4: tissue inhibitor of metalloproteinase-4 protein (R&D Systems, Inc), added to media or given in slow-release pellets (protein, UniProt Q99727 30-224, looked up)
Metalloproteinase inhibitor 4: CSCAPAHPQQHICHSALVIRAKISSEKVVPASADPADTEKMLRYEIKQIKMFKGFEKVKDVQYIYTPFDSSLCGVKLEANSQKQYLLTGQVLSDGKVFIHLCNYIEPWEDLSLVQRESLNHHYHLNCGCQITTCYTVPCTISAPNECLWTDWLLERKLYGYQAQHYVCMKHVDGTCSWYRGHLPLRKEFVDIVQP

Experiments:
AKT = assay: Western blotting of AKT activation in breast cancer cell cultures; format: cell-based
Excerpt: TIMP-4 appears to induce PI3K/AKT signaling, a critically important cancer cell pathway (Cantley, L. C. (2002) Science, 296:1655-7; Lopez-Knowles et al. (2010) Int. J. Cancer, 126:1121-31), through binding to the tetraspanin CD63 (Jung et al. (2006) EMBO J., 25:3934-42) (FIG. 3). […] Prior to clinical use of Her-2 targeting therapy (Herceptin®), breast cancers that were positive for Her-2 were, like TNBCs, associated with fast growth rate, early recurrence and distant disease resulting in a prognosis of poor survival (Hsieh et al. (2007) Br. J. Cancer, 97:453-7).

MDA-MB-468 cells [1] = assay: MDA-MB-468 orthotopic xenograft in mammary fat pad of nude mice with TIMP-4 or placebo slow-release pellets; format: in vivo; conditions: TIMP-4 slow-release pellets implanted two weeks before cells
Experimental: FIGS. 7A and B show the effect of modulating TIMP-4 levels in a pilot animal study. Slow-release pellets were used to elevate the TIMP-4 (FIG. 7A) levels in the mammary fatpad (mfp) prior to implanting human TNBC cells. Placebo pellets (FIG. 7B) were used for control conditions. Once tumors were established, twice weekly doses of the anti-TIMP-4 or iso-type control mAb were administered during a two-week period (i.e. in total four treatments). Animals were followed for an additional two weeks post-treatment.
Inguinal mammary fat pads in nude mice were implanted with slow-release pellets (Innovative Research of America, Fla.) containing TIMP-4 to elevate its levels. Two weeks later, MDA-MB-468 cells were mixed with Matrigel™ (LDEV and phenol red free, BD Biosciences) and injected at the same site as an orthotopic xenograft. […] Tumor-bearing mice from both the groups shown were then randomly divided in half and treated by i.p. injection with 1 mg IgG of TIMP-4 mAb (clone 18:4-7) or a matched isotype control IgG2bk (BioXCell, N.H.), in sterile azide-free solution, administered twice weekly for 2 weeks. […] The antibody had no effect on animals without elevated TIMP-4 (FIG. 7B).

CD63 = target: T1, CD63; assay: Immunoprecipitation and immunofluorescence staining for CD63 binding; conditions: MDA-MB-468, 2nM TIMP-4
Excerpt: Human breast cancer cell-lines expressing the tetraspanin CD63 (Chirco et al. (2006) Cancer Met. Rev., 25:99-113), as determined by FACS analysis, include MDA-MB-468.

MDA-MB-468 cells [2] = assay: Clonogenic growth assay after irradiation; format: cell-based, human; conditions: elevated TIMP-4 conditions, N=3
Experimental: (§1) MDA-MB-468 cell were compared to the CD63 negative SK-Br-3 cells using a modified Boyden chamber to assess invasion in absence (Ctrl) and presence of 2nM TIMP-4 (N=6). […] Clonogenic growth assay (Ayene et al. (2000) Int. J. Radiat. Biol., 76:1523-1531) was used to determine the survival advantage for MDA-MB-468 cells under elevtedTIMP-4 conditions after irradiation (N=3). […] This effect can be prevented by pre-treating the cells with LY294002. […] Further, cells cultured in normal medium began to detach and die as they reached contact inhibition (day 10), whereas cells in TIMP-4-supplemented media continued to survive and grow. Growth augmented by TIMP-4 could be blocked by the addition of the TIMP-4 mAb of the instant invention. Briefly, TIMP-4 mAbs were obtained by delivering a purified glutathione-S-transferase (GST) chimeric protein comprising the human full-length 224 amino acid TIMP-4 (GenBank Accession No. NM_003256.2).

[3] = system: CD63 negative SK-Br-3 cells; assay: Modified Boyden chamber invasion, SK-Br-3; format: cell-based, human; conditions: 2nM TIMP-4 for 24 hours, N=6
Experimental: as §1

[4] = system: triple-negative human breast cancer cell-line MDA-MB-468; assay: Growth of MDA-MB-468 in culture with or without 2 nM TIMP-4; format: cell-based; conditions: normal media supplemented with 2 nM TIMP-4
Experimental: as §1

MDA-MB-468 cell = assay: Modified Boyden chamber invasion, MDA-MB-468; format: cell-based, human; conditions: 2nM TIMP-4 for 24 hours, N=6
Experimental: as §1

| Molecule | activation of AKT (pAkt Ser473) (AKT) | tumor size and growth rate with TIMP-4 pellets versus placebo pellets (MDA-MB-468 cells [1]) | binding to CD63 (CD63) | survival of MDA-MB-468 cells after irradiation (MDA-MB-468 cells [2]) | invasiveness of SK-Br-3 [3] | growth rate of MDA-MB-468 [4] | invasiveness of MDA-MB-468 (MDA-MB-468 cell) |
| --- | --- | --- | --- | --- | --- | --- | --- |
| TIMP-1: member of the mammalian TIMP family, secreted circulating protein | can activate AKT | – | – | – | – | – | – |
| B1 | can activate AKT; also recorded: sufficient to activate the PI3K/AKT pathway | Differences in tumor size and growth rate | functional binding partner | increased survival | did not increase the invasiveness | increased growth rate; also recorded: relatively faster growth rate | increased the invasiveness |
